From FireProtDB (doi:10.1093/protein/gzw068)

B1: V77I, Q93D82 (parent)
chain: MSTAIVTNVKHFGGMGSALRLSEAGHTVACHDESFKQKDELEAFAETYPQLKPMSEQEPAELIEAVTSAYGQVDVLVSNDIFAPEFQPIDKYAVEDYRGAVEALQIRPFALVNAVASQMKKRKSGHIIFITSATPFGPWKELSTYTSARAGACTLANALSKELGEYNIPVFAIGPNYLHSEDSPYFYPTEPWKTNPEHVAHVKKVTALQRLGTQKELGELVAFLASGSCDYLTGQVFWLAGGFPMIERWPGMPE

Variants of: B1
Details: Rhizobium radiobacter; pH 7.7; Thermal; CD; Phosphate 5mM; structure 1PWX; whole UniProt chain shown

Q: What does the source list for V77I?
A: Tm: 64 °C; change of melting temperature, mutant - wild type (higher = more stable): -1 °C

Q: Which Tm does the source give for V94L here?
A: 63.5 °C

Q: And the “change of melting temperature, mutant - wild type (higher = more stable)” value (shortened to “change of melting temperature, mutant”)?
A: -1.5 °C

Q: With S68Q as the variant, how does the Tm read?
A: 63 °C

Q: What about the “change of melting temperature, mutant” value of the same variant?
A: -2 °C

Q: For S68K, which Tm is on record?
A: 65 °C

Q: And the “change of melting temperature, mutant” value?
A: 0 °C

Q: Which results are given for S68R?
A: Tm: 66.5 °C; change of melting temperature, mutant - wild type (higher = more stable): 1.5 °C

Q: Which results are given for S68N?
A: Tm: 65.5 °C; change of melting temperature, mutant - wild type (higher = more stable): 0.5 °C

Q: What does the source list for V75I?
A: Tm: 65 °C; change of melting temperature, mutant - wild type (higher = more stable): 0 °C

Q: Which Tm does the source give for E165A here?
A: 65.5 °C

Q: And the “change of melting temperature, mutant” value?
A: 0.5 °C

Q: For E165P, which Tm is on record?
A: 57.5 °C

Q: What about the “change of melting temperature, mutant” value of the same variant?
A: -7.5 °C

Q: For K161F, which Tm is on record?
A: 64 °C

Q: What about the “change of melting temperature, mutant” value of the same variant?
A: -1 °C

Q: What does the source list for D96H?
A: Tm: 56 °C; change of melting temperature, mutant - wild type (higher = more stable): -9 °C

Q: With A60L as the variant, how does the Tm read?
A: 63 °C

Q: And the “change of melting temperature, mutant” value?
A: -2 °C

Q: For A60K, which Tm is on record?
A: 61 °C

Q: And the “change of melting temperature, mutant” value?
A: -4 °C

Q: For A60Y, which Tm is on record?
A: 64.5 °C

Q: What about the “change of melting temperature, mutant” value of the same variant?
A: -0.5 °C

Q: With A60R as the variant, how does the Tm read?
A: 66.5 °C

Q: And the “change of melting temperature, mutant” value?
A: 1.5 °C

Q: Which Tm does the source give for D230N here?
A: 62 °C

Q: What about the “change of melting temperature, mutant” value of the same variant?
A: -3 °C

Q: With P244A as the variant, how does the Tm read?
A: 67 °C

Q: And the “change of melting temperature, mutant” value?
A: 2 °C

Q: For N157F, which Tm is on record?
A: 64 °C

Q: And the “change of melting temperature, mutant” value?
A: -1 °C

Q: Which Tm does the source give for N157R here?
A: 60 °C

Q: What about the “change of melting temperature, mutant” value of the same variant?
A: -5 °C

Q: With N157W as the variant, how does the Tm read?
A: 56 °C

Q: And the “change of melting temperature, mutant” value?
A: -9 °C

Q: With Q87L as the variant, how does the Tm read?
A: 62.5 °C

Q: And the “change of melting temperature, mutant” value?
A: -2.5 °C

Q: With Q87R as the variant, how does the Tm read?
A: 68.5 °C

Q: And the “change of melting temperature, mutant” value?
A: 3.5 °C

Q: What does the source list for Y48F?
A: Tm: 65.5 °C; change of melting temperature, mutant - wild type (higher = more stable): 0.5 °C

Q: With E58Q as the variant, how does the Tm read?
A: 67.5 °C

Q: What about the “change of melting temperature, mutant” value of the same variant?
A: 2.5 °C

Q: What does the source list for E58N?
A: Tm: 65 °C; change of melting temperature, mutant - wild type (higher = more stable): 0 °C

Q: For F82W, which Tm is on record?
A: 59 °C

Q: What about the “change of melting temperature, mutant” value of the same variant?
A: -6 °C

Q: Which Tm does the source give for F86W here?
A: 64.5 °C

Q: What about the “change of melting temperature, mutant” value of the same variant?
A: -0.5 °C

Q: What does the source list for E85Y?
A: Tm: 64.5 °C; change of melting temperature, mutant - wild type (higher = more stable): -0.5 °C

Q: Which results are given for E247P?
A: Tm: 66 °C; change of melting temperature, mutant - wild type (higher = more stable): 1 °C

Q: Which results are given for E247Y?
A: Tm: 63 °C; change of melting temperature, mutant - wild type (higher = more stable): -2 °C

Q: What does the source list for E190T?
A: Tm: 66.5 °C; change of melting temperature, mutant - wild type (higher = more stable): 1.5 °C

Q: With E190L as the variant, how does the Tm read?
A: 65.5 °C

Q: And the “change of melting temperature, mutant” value?
A: 0.5 °C

Q: Which Tm does the source give for D80E here?
A: 60 °C

Q: And the “change of melting temperature, mutant” value?
A: -5 °C

Q: Which Tm does the source give for D80V here?
A: 64 °C

Q: And the “change of melting temperature, mutant” value?
A: -1 °C

Q: For E219N, which Tm is on record?
A: 63.5 °C

Q: And the “change of melting temperature, mutant” value?
A: -1.5 °C

Q: What does the source list for L111W?
A: Tm: 57 °C; change of melting temperature, mutant - wild type (higher = more stable): -8 °C

Q: With C153V as the variant, how does the Tm read?
A: 50.5 °C

Q: What about the “change of melting temperature, mutant” value of the same variant?
A: -14.5 °C

Q: For C153L, which Tm is on record?
A: 63 °C

Q: And the “change of melting temperature, mutant” value?
A: -2 °C

Q: Which Tm does the source give for C153H here?
A: 53.5 °C

Q: And the “change of melting temperature, mutant” value?
A: -11.5 °C

Q: What does the source list for C153N?
A: Tm: 78.5 °C; change of melting temperature, mutant - wild type (higher = more stable): 13.5 °C

Q: For C153I, which Tm is on record?
A: 60 °C

Q: What about the “change of melting temperature, mutant” value of the same variant?
A: -5 °C

Q: What does the source list for T194Q?
A: Tm: 61 °C; change of melting temperature, mutant - wild type (higher = more stable): -4 °C

Q: Which Tm does the source give for K140P here?
A: 54.5 °C

Q: What about the “change of melting temperature, mutant” value of the same variant?
A: -10.5 °C

Q: Which results are given for K140S?
A: Tm: 62.5 °C; change of melting temperature, mutant - wild type (higher = more stable): -2.5 °C

Q: Which results are given for T144I?
A: Tm: 57 °C; change of melting temperature, mutant - wild type (higher = more stable): -8 °C

Q: For T154I, which Tm is on record?
A: 62 °C

Q: And the “change of melting temperature, mutant” value?
A: -3 °C

Q: With T154V as the variant, how does the Tm read?
A: 62 °C

Q: What about the “change of melting temperature, mutant” value of the same variant?
A: -3 °C

Q: What does the source list for T154L?
A: Tm: 58.5 °C; change of melting temperature, mutant - wild type (higher = more stable): -6.5 °C

Q: With H198M as the variant, how does the Tm read?
A: 55 °C

Q: What about the “change of melting temperature, mutant” value of the same variant?
A: -10 °C

Q: Which Tm does the source give for H198Y here?
A: 62.5 °C

Q: What about the “change of melting temperature, mutant” value of the same variant?
A: -2.5 °C

Q: What does the source list for R98I?
A: Tm: 64.5 °C; change of melting temperature, mutant - wild type (higher = more stable): -0.5 °C

Q: For R98L, which Tm is on record?
A: 65 °C

Q: What about the “change of melting temperature, mutant” value of the same variant?
A: 0 °C

Q: Which results are given for T134I?
A: Tm: 63.5 °C; change of melting temperature, mutant - wild type (higher = more stable): -1.5 °C

Q: With T134V as the variant, how does the Tm read?
A: 68 °C

Q: What about the “change of melting temperature, mutant” value of the same variant?
A: 3 °C

Q: For T134W, which Tm is on record?
A: 64 °C

Q: And the “change of melting temperature, mutant” value?
A: -1 °C

Q: With K91Q as the variant, how does the Tm read?
A: 61 °C

Q: And the “change of melting temperature, mutant” value?
A: -4 °C

Q: Which results are given for E197K?
A: Tm: 67.5 °C; change of melting temperature, mutant - wild type (higher = more stable): 2.5 °C
